Laboratory results: the supplement of paper PMC6755084

B1: F1*; the commonest letter at each place (parent)
chain: GAGACCGCAACTGAAAAGTTGTTATCACTTGTCGTAAGACACTTTGGATGGGTTGAAGTTCTGCACGTAGAAGCAAAAGGC

Variants of: B1
Assay: fraction ligated after 30 min (ligated reads / total reads); higher = more ligase activity
Details: with F1*sub RNA substrate (template-directed ligation), 42 °C
Method in brief: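 Oligo-pool templates of ligase ribozyme variants were PCR-amplified, T7-transcribed and gel-purified. Ligated and unligated bands were gel-separated, reverse transcribed with barcoded primers, and MiSeq-sequenced; core bases were filtered at quality ≥20. Fraction ligated per variant was ligated reads over total reads.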

Variant	fraction ligated
T35A T45G	0.408
T35A T45C	0.788
T35A T45A	0.797
T35G T44G	0.851
T35G T44C	0.854
T35G T44A	0.843
A36C A56C	0.804
T35G G50C	0.486
T35G G50T	0.795
T35G G50A	0.659
T35A G38A	0.863
T35A G38C	0.855
T35A G38T	0.855
T35A A57T	0.809
T35A A57C	0.82
T35A A57G	0.847
T35G A41C	0.808
T35G A41T	0.839
T35G A41G	0.816
T35A T43G	0.807
T35A T43A	0.84
T35A T43C	0.794
T35C A37T	0.847
T35C A37G	0.881

Variant	fraction ligated
T35C A37C	0.845
A36C A37C	0.821
A36C A37T	0.837
A36C A37G	0.825
T35A G47T	0.398
T35A G47C	0.221
T35A G47A	0.811
T35G A37G	0.847
T35G A37T	0.846
T35G A37C	0.868
T35C T43A	0.839
T35C T43G	0.797
T35C T43C	0.777
A36C	0.833
T35G T49C	0.727
T35G T49A	0.748
T35G T49G	0.778
T35G G38A	0.847
T35G G38C	0.865
T35G G38T	0.845
T35A A56G	0.799
T35A A56T	0.82
T35A A56C	0.802
T35G C40A	0.838

Variant	fraction ligated
T35G C40G	0.837
T35G C40T	0.851
T35C G47T	0.36
T35C G47C	0.213
T35C G47A	0.811
T35C A41G	0.783
T35C A41C	0.777
T35C A41T	0.819
T35G C42G	0.857
T35G C42T	0.838
T35G C42A	0.846
T35A A41T	0.831
T35G A36G	0.845
T35G A36C	0.824
T35G A36T	0.851
T35C T44A	0.851
T35C T44C	0.841
T35C T44G	0.823
T35A G46T	0.783
T35A G46C	0.799
T35A G46A	0.837
T35C A48G	0.805
T35C A48T	0.792
T35C A48C	0.766

Variant	fraction ligated
T35C G50C	0.437
T35C G50T	0.753
T35C G50A	0.608
T35C G46C	0.792
T35C G46A	0.829
T35C G46T	0.778
T35G A56G	0.791
T35G A56T	0.802
T35G A56C	0.802
T35G T43G	0.801
T35G T43A	0.819
T35G T43C	0.807
T35C A56T	0.796
T35C A56C	0.759
T35C A56G	0.782
T35C A57T	0.825
T35C A57C	0.813
T35C A57G	0.822
A36C A39C	0.803
A36C A39G	0.826
A36C A39T	0.802
T35G T45A	0.772
T35G T45G	0.388
T35G T45C	0.747

Variant	fraction ligated
T35C T45A	0.748
T35C T45G	0.399
T35C T45C	0.783
T35A T49C	0.768
T35A T49A	0.763
T35A T49G	0.817
T35G A39T	0.836
T35G A39C	0.816
T35G A39G	0.799
T35G A57G	0.838
T35G A57C	0.805
T35G A57T	0.804
T35A C40G	0.834
T35A C40T	0.834
T35A C40A	0.811
A36C A41T	0.814
A36C A41C	0.782
A36C A41G	0.741
T35A T44C	0.826
T35A T44A	0.838
T35A T44G	0.821
T35G A48G	0.79
T35G A48C	0.755
T35G A48T	0.789

Variant	fraction ligated
T35G G55T	0.809
T35G G55A	0.819
T35G G55C	0.807
T35A G55A	0.868
T35A G55C	0.819
T35A G55T	0.834
T35C C42T	0.856
T35C C42G	0.851
T35C C42A	0.841
T35C G38A	0.856
T35C G38C	0.815
T35C G38T	0.821
T35G G46T	0.784
T35G G46C	0.803
T35G G46A	0.809
T35C C40T	0.862
T35C C40G	0.817
T35C C40A	0.84
T35C A36T	0.839
T35C A36C	0.8
T35C A36G	0.847
T35C	0.839
T35G	0.839
T35C G55T	0.804

Variant	fraction ligated
T35C G55C	0.796
T35C G55A	0.841
T35C A39G	0.833
T35C A39T	0.825
T35C A39C	0.824
A36C A48C	0.778
A36C A48G	0.784
A36C A48T	0.8
T35A A48G	0.801
T35A A48T	0.8
T35A A48C	0.752
T35G G47C	0.222
T35G G47A	0.78
T35G G47T	0.391
T35A C42A	0.845
T35A C42T	0.85
T35A C42G	0.847
T35A G50C	0.474
T35A G50T	0.792
T35A G50A	0.638
T35C T49A	0.756
T35C T49C	0.731
T35C T49G	0.804
